Assay results: patent US10563181B2, “Molecular cloning and expression of cDNA encoding O-methyltransferase isolated from Mangifera indica” (COUNCIL OF SCIENTIFIC & INDUSTRIAL RESEARCH, priority 2015, dated 2020)
Where two headings read alike, the source gives them in different places.

Experiments:
recombinant MiOMTS [1] = experiment: In vitro enzymatic assay of recombinant MiOMTS with candidate substrates and SAM as methyl group donor; assay type: biochemical, Mangifera indica; settings: 0.2 mM substrate, 0.01 mM SAM, 30° C. for 30 min; products identified by UHPLC-Orbitrap MS
Experimental: The complete ORF of MiOMTS cDNA was cloned in pGEX-4T vector and the protein was expressed as GST-tag fusion protein in E. coli BL21 (DE3) cells. The protein was purified using GST affinity chromatography and released from the tag using thrombin. […] The purified protein was assayed for its activity with furaneol, caffeic acid, catechol and protocatechuic aldehyde as substrates and S-adenosyl-L-metheonine (SAM) as methyl group donor. The methylation products of these substrates upon MiOMTS enzymatic reaction were identified and analysed on high resolution mass spectrometer. […] In contrast to furaneol and protocatechuic aldehyde, MiOMTS could not use caffeic acid and catechol as the methyl group acceptor.
(§1) The in vitro enzymatic assays were carried out in the lysis buffer containing appropriate amount of protein, 0.2 mM substrate and 0.01 mM S-adenosylmetheonine (SAM) in a final volume of 500 μl reaction. The reaction was incubated at 30° C. for 30 min. For the determination of optimum pH for the enzyme activity, the assays were performed in 50 mM citrate buffer (pH 4.0 and 5.0), 50 mM phosphate buffer (pH 6.0, 6.5, 7.0 and 7.5) and 50 mM Tris buffer (pH 8.0, 8.5 and 9.0) keeping other components in the assay same as above. Similarly, for optimum temperature the assays were performed at 15, 20, 25, 30, 35 and 40° C. Assay products were extracted twice with ethyl acetate; the organic layers were pooled, dried in a concentrator and constituted with methanol. An Accela™ ultra high performance liquid chromatography (UHPLC) system (ThermoFisher, Waltham, USA), coupled online via heated electrospray ionization source (HESI) with a Q-Exactive-Orbitrap mass spectrometer (ThermoFisher), was employed with 20 μL sample injection volume and the chromatograms were obtained by total ion monitoring in a positive ion mode. The products were separated and analysed on Hypercil GOLD C-18 reverse phase column (150 mm×3 mm i. d., particle size 5 μm, Thermo Scientific, Waltham, Mass., USA) with a linear gradient of 95% water acidified with 0.05% formic acid and 5% methanol to 80% methanol and 20% water with the flow rate of […]. The sample manager was maintained at 4° C. Identification of the substrates as well as products were done by comparing the retention time and molecular mass of authentic external standards [furaneol (CAS No. 3658-77-3), mesifuran (CAS No. 4077-47-8), protocatechuic aldehyde (CAS No. 139-85-5) and vanillin (CAS No. 121-33-5)] procured from Sigma Aldrich, USA.

MiOMTS transcripts = settings: 5DAH ethylene treated vs 20DAH conventionally ripened
Experimental: Quantitative real-time PCR was performed using Fast Start Universal SYBR Green master mix (Roche Inc. Indianapolis, Ind., USA) and elongation factor 1α as an endogenous control employing the primers mentioned earlier (Pandit et al., 2010). Transcripts of MiOMTS were amplified using primers;
Quantification was done by ViiA™ 7 Real-Time PCR System (Applied Biosystems, CA, USA) having thermal cycle programme of initial denaturation at 95° C. for 10 min with subsequent 40 cycles of 95° C. for 3 sec and 60° C. for 30 sec followed by a dissociation curve analysis of transcripts. […] The quantification was done for three independent biological replicates separately, each of which was represented by at least three technical replicates. […] The uniformity of expression across the tissues was monitored using elongation factor 1α (EF1α) gene as an endogenous control.
To get better understanding of synthesis of mesifuran during late ripening stages of Alphonso mango and its regulation at transcriptional level, the transcripts of MiOMTS were profiled during the conventional ripening of Alphonso mango. […] To further assess this at transcript level, the transcripts of MiOMTS were analyzed in the fruits which were subjected to the postharvest ethylene treatment.

recombinant MiOMTS [2] = experiment: Optimum pH and temperature for the activity of recombinant MiOMTS using furaneol as a substrate; assay type: biochemical, Mangifera indica
Experimental: In order to evaluate the optimum biochemical conditions for the activity of recombinant MiOMTS, assays were performed at varied pH and temperatures using furaneol as a substrate. […] In case of temperature, optimum activity was detected at 25° C., with retention of 60% activity at 30° C.
as §1

CC1=C(O)C(=O)C(C)O1 (centres unmarked) [furaneol, 4-hydroxy-2,5-dimethyl-3(2H)-furanone]
use of substrate as methyl group acceptor (methylation) by MiOMTS (recombinant MiOMTS [1]): successfully used for methylation

O=C(O)/C=C/c1ccc(O)c(O)c1 [caffeic acid]
use of substrate as methyl group acceptor (methylation) by MiOMTS (recombinant MiOMTS [1]): could not use

Oc1ccccc1O [catechol]
use of substrate as methyl group acceptor (methylation) by MiOMTS (recombinant MiOMTS [1]): could not use

O=Cc1ccc(O)c(O)c1 [protocatechuic aldehyde]
use of substrate as methyl group acceptor (methylation) by MiOMTS (recombinant MiOMTS [1]): successfully used for methylation

C=C [ethylene]
MiOMTS transcript abundance, fold higher than conventionally ripened fruits (MiOMTS transcripts; pulp): 19 fold
MiOMTS transcript abundance, fold higher than conventionally ripened fruits (MiOMTS transcripts; skin): 82 fold

B1: MiOMTS: O-methyltransferase enzyme protein from Mangifera indica, having SEQ ID No.3, recombinantly expressed in E. coli (protein)
chain: MGSLEVKTLLEGQAEVWQYMFGFADSMVLKSAVELRLADIIHSYGGPMSLSQIASKIDSASPNIPYLGRIMRMLARKGVFGAHRPSEGGDTTYGLTHISTWLRHDSELSLAPMILMENNLWQLAPWHYLSQCVKQGGIAFKKAHGCEMWDFASQNPEFNKLFNDALACTTKIVMRAFLSQYKEGFNNVRSLVDVGGGTGGELAEILKTYPHMKGINFDLPHVVATAPEYDGVSNVGGNMFDAIPNADVIFMKWILHDWSDEACVKILKNCRKAIPEKTGRVVLVEIVLQENGDNMFGNMDVVFDLLMFAHTTGGKERTEPEWKKLLEEGGFPRYNIINIPALPSIIEAYPL
modifications: O-methyltransferase enzyme protein sequence; O-methyltransferase peptide or enzyme sequence
optimum pH for activity (recombinant MiOMTS [2]): 7.0
optimum temperature for activity (recombinant MiOMTS [2]): 25 °C
reduction in the activity (recombinant MiOMTS [2]; 20° C.): more than 50%
retention of activity (recombinant MiOMTS [2]; 30° C., relative to 25° C.): 60%
activity (recombinant MiOMTS [2]; 40° C.): complete inactivation
activity (recombinant MiOMTS [2]; pH 4): no activity was detected
activity (recombinant MiOMTS [2]; pH 5): no activity was detected
retention of activity (recombinant MiOMTS [2]; pH 6.0, relative to pH 7.0): 70%
retention of activity (recombinant MiOMTS [2]; pH 8.0, relative to pH 7.0): 90%
reduction in the activity (recombinant MiOMTS [2]; pH 8.5): more than 50%
activity (recombinant MiOMTS [2]; pH 9): no activity was detected
